# Test results as given in the RNAGym collection of RNA variant scans (doi:10.7554/elife.90254).
# B1: OR4K15 (parent)
# chain: GUUAACGGUCAUAGGCCAUGGAAACUAGGAGCACCAUUUCGCUGCCAGUGAAGAAAUGAACAAAGAAAAUCUGGGCCAGGCAGGCAUCAAAAGAAAUAGUCUUGCGCUCAACCAGAAAGUCUGUAAUCAUUUUAAGGGUA
# Variants of: B1
# Test: self-cleavage, relative activity (ratio to wild type); higher = more cleavage; in vitro, sequencing; the parent is a self-cleaving ribozyme
row,Variant,self-cleavage
1,U70C A129U,0.41
2,A68U G106A,0
3,A67G A68U,1.13
4,A68G A95G,1.98
5,A68U C88U,2.47
6,A68G U120C,0.65
7,A68G U120G,1.02
8,A69G U122G,1.83
9,A67G U108A,0.02
10,A67G U108C,0.02
11,U70C A98U,0.72
12,A67C A96U,2.39
13,A67U U131G,1.68
14,A67U U131C,2.18
15,A67G A91G,1.07
16,A69G C85U,0.65
17,A67G U72C,0.32
18,A67G U72A,0.26
19,A69U U87G,0.74
20,U70C U87G,0.04
21,U70G A94G,1.61
22,A69G U127A,1.8
23,A66U A89C,0.99
24,A66U A89G,1.7

row,Variant,self-cleavage
1,A66U A140G,2.51
2,A67U A134G,1.09
3,A67G C77U,1.03
4,A68G U70C,0.51
5,U70A A89U,1.74
6,A67G G75A,0.11
7,A68G A90U,1.58
8,A68G A90G,1.17
9,A69G A126G,0.55
10,A69G A126U,1.33
11,A67G U97A,1.71
12,A68U U108C,0.02
13,A69C A117U,0.21
14,A69U A96G,2.35
15,A67G U124C,0.87
16,U70C U100A,0.18
17,U70C U100C,2
18,A67U A92G,2.2
19,A69G A118G,0.98
20,A66U U100C,2.47
21,A69G A90G,1.43
22,U70A A116G,0.59
23,A69U A90G,1.31
24,A67G A125U,0.11

row,Variant,self-cleavage
1,A69U A134G,1.82
2,A69G U108C,0.02
3,A68G G79U,0.07
4,A68G A89U,2.23
5,A68G A89C,1.1
6,A69G A135G,0.07
7,A69G A135U,1.45
8,A68G C85U,1.49
9,A66U U108C,0.02
10,A68C A82U,0.23
11,A67C A110G,0.37
12,A66U C113A,0
13,A69C A114G,0.21
14,A68G A135G,1.23
15,A67G G138A,0.97
16,A67U U72A,0.2
17,A67U U72C,0.31
18,A69G U124A,0.53
19,U70A A94G,0.72
20,A69G G99U,0.23
21,U70C A118G,0.35
22,U70A U127C,0.34
23,A69G G123A,1.43
24,A67G A90G,0.96

row,Variant,self-cleavage
1,A67G A90U,1.13
2,A68U U103C,1.42
3,A69U A129U,1.23
4,A68C U124C,1.22
5,A68G G106A,0.02
6,U70G A95G,1.21
7,A67U U130C,1.04
8,A66U A126G,1.05
9,A66U U120G,1.14
10,A67U A96G,1.65
11,A69G U72G,0.38
12,A69G U100C,2.43
13,A68G U139A,2.25
14,A67G A118C,0.76
15,U70A U131C,0.7
16,A68G U124A,0.95
17,U70A A110U,0.18
18,U70A A110G,0.1
19,A67U U97C,1.43
20,A68C C88G,1.63
21,A67G A126G,1.21
22,A68G U100C,1.42
23,A68G U100A,0.24
24,U70C A95G,1.84

row,Variant,self-cleavage
1,A69C U132C,2.58
2,A67C A125G,0.85
3,A67G C76U,0.07
4,A69G A89C,1.65
5,A69G A89G,0.86
6,A67G G84U,0.35
7,U70C G83A,1.57
8,A68U U132C,1.76
9,A69G U131C,0.55
10,A67G U139A,1.87
11,A67G U139C,1.64
12,U70C A91U,1.07
13,A69U A126C,1.66
14,A67G U122G,2.16
15,A67G G104A,0.08
16,U70G U122A,1.34
17,A67G A110U,1.46
18,A67C U87C,1.79
19,A69G A94G,1.36
20,A69G A94U,1.45
21,U70A A78U,0.43
22,U70A A78G,0.33
23,A68G C101G,0.08
24,A68G C101A,0.19

row,Variant,self-cleavage
1,A67U A110G,0.25
2,A68U U120C,1.1
3,A68U U120A,1.48
4,U70A U132C,0.6
5,U70C A82U,0.37
6,A67U A89G,1.74
7,U70G A118G,0.55
8,A67G U70A,0.72
9,A67G U70G,0.68
10,A66U A135U,0.74
11,A66U A135G,1.83
12,A69U A117G,1.48
13,A67G A140C,1.47
14,A67U A118U,0.53
15,A67G U120C,0.83
16,A67G U120G,1.4
17,U70C G104A,0.03
18,U70C A94U,0.2
19,U70C C109A,0.16
20,A69G U120C,0.98
21,A69G U120A,1.44
22,U70A U122C,1.14
23,A68G A114G,0.68
24,A68G A114C,0.04

row,Variant,self-cleavage
1,A68G A114U,0.04
2,A68U A134G,1.78
3,A68G A134U,1.49
4,A67G A116C,0.26
5,A67G A116G,0.71
6,A67G A116U,0.14
7,U70A A82U,0.24
8,A69U U103C,0.51
9,A69U A94G,2.42
10,A67G C88A,1.16
11,U70C U130A,0.19
12,A66U U122G,2.33
13,A67U C85U,1.15
14,U70C U133C,0.98
15,A67G G74U,0.24
16,A67U U120A,2.17
17,A67U U120C,1.13
18,A66U A82U,0.24
19,A67G U87C,1.19
20,A67U A94G,1.22
21,A67G C121A,2.73
22,A69U G136A,2.69
23,A67U C113U,0.42
